From patent EP1063290A1, “NOVEL DICARBONYLREDUCTASE AND GENE ENCODING THE SAME” (TAISHO PHARMACEUTICAL CO., LTD, priority 1998, dated 1999)

Key:
Experiment in all cases: purified protein, by the assay type
[1] = substrate: CCC(=O)C(C)=O
[2] = substrate: O=C(CBr)C(=O)CBr; conditions: other: assay at pH 7.0, 25.0 °C
Protocol: The enzyme used here was an expressed recombinant enzyme. • (a) Substrate specificity: In order to determine the substrate specificity, there may be used a hydrocarbon system including various ketone, aldehyde and ester groups, or an aromatic compound.
The reaction mixture (total: 2.0 ml) comprised an 80 mM potassium phosphate solution (pH 7.0 or 6.0), 0.1 mM NADPH or NADH and a carbonyl substrate or enzyme (50 µl) (10.1 µg or 3.7 µg of hDCR1).
The oxidation rate for NAD(P)H was measured at 340 nm.
One unit of enzyme activity was defined as that which catalyzed oxidation of 1 µmol of NAD(P)H in one minute at 25°C.

[3] = substrate: CCC(=O)C(=O)CC
[4] = substrate: CCCC(=O)C(C)=O
[5] = substrate: CC(=O)C(C)=O
[6] = substrate: O=Cc1cccnc1; conditions: other: rate constants for the major substrates, mouse enzyme; pH 7.0; 25.0 °C
Protocol: (§1) The enzyme activity assay method is not particularly restricted, and it may be based on the activity assay method for mouse carbonyl reductase (CR) (Eur. J. Biochem. 22, 381-387(1995)).
(§2) • (1) This was assayed under the following conditions. The reaction mixture (total: 2.0 ml) comprised an 80 mM potassium phosphate solution (pH 7.0 or 6.0), 0.1 mM NADPH or NADH and a carbonyl substrate or enzyme (50 µl) (10.1 µg or 3.7 µg of glomerin B). The oxidation rate for NAD(P)H was measured at 340 nm. One unit of enzyme activity was defined as that which catalyzed oxidation of 1 µmol of NAD(P)H in one minute at 25°C. • (2) The substrate specificity of protein DCR1 for carbonyl compounds is summarized in Table 1. • (3) pH dependency of diacetyl reductase activity due to protein DCR1 The activity was measured using 10 mM diacetyl, and the specific activity was calculated based on the protein concentration in the protein DCR1 sample (Fig. 7).

[7] = substrate: O=Cc1ccncc1; conditions: other: rate constants for the major substrates, mouse enzyme; pH 7.0; 25.0 °C
Protocol: as §1, §2

[8] = substrate: CCCCC(=O)C(C)=O; conditions: other: rate constants for the major substrates, mouse enzyme; pH 7.0; 25.0 °C
Protocol: as §1, §2

[9] = substrate: CC(=O)C(C)O; conditions: other: rate constants for the major substrates, mouse enzyme; pH 7.0; 25.0 °C
Protocol: as §1, §2

[10] = substrate: COC(=O)C(=O)c1ccccc1; conditions: other: rate constants for the major substrates, mouse enzyme; pH 7.0; 25.0 °C
Protocol: as §1, §2

[11] = substrate: CC(=O)C(=O)c1ccccc1; conditions: pH 7.0; 25.0 °C
Protocol: as §1, §2

[12] = substrate: COC(=O)C(C)=O; conditions: other: rate constants for the major substrates, mouse enzyme; pH 7.0; 25.0 °C
Protocol: as §1, §2

[13] = other: assay at pH 7.0, 25.0 °C
[14] = other: rate constants for the major substrates, mouse enzyme, pH 7.0, 25.0 °C

B1: protein hDCR1 (Homo sapiens) (protein)
chain: MELFLAGRRVLVTGAGKGIGRGTVQALHATGARVVAVSRTQADLDSLVRECPGIEPVCVDLGDWEATERALGSVGPVDLLVNNAAVALLQPFLEVTKEAFDRSFEVNLRAVIQVSQIVARGLIARGVPGAIVNVSSQCSQRAVTNHSVYCSTKGALDMLTKVMALELGPHKIRVNAVNPTVVMTSMGQATWSDPHKAKTMLNRIPLGKFAEVEHVVNAILFLLSDRSGMTTGSTLPVEGGFWAC
Km [1, 13]: (0.26) mM | Km [2]: (0.016) mM | Km [3, 13]: (0.12) mM | Km [4, 13]: (0.24) mM | Km [5, 13]: (0.25) mM

B2: protein DCR1 (Mus musculus) (protein)
chain: MDLGLAGRRALVTGAGKGIGRSTVLALKAAGAQVVAVSRTREDLDDLVRECPGVEPVCVDLADWEATEQALSNVGPVDLLVNNAAVALLQPFLEVTKEACDTSFNVNLRAVIQVSQIVAKGMIARGVPGAIVNVSSQASQRALTNHTVYCSTKGALDMLTKMMALELGPHKIRVNAVNPTVVMTPMGRTNWSDPHKAKAMLDRIPLGKFAEVENVVDTILFLLSNRSGMTTGSTLPVDGGFLAT
Km [6]: 7,900 µM | Vmax [6]: 0.62 unit/mg | Vmax/Km [6]: 0.08 unit/mg/mM | Km [1, 14]: 280 µM | Vmax [1, 14]: 5.7 unit/mg | Vmax/Km [1, 14]: 20 unit/mg/mM | Km [7]: 4,400 µM | Vmax [7]: 0.78 unit/mg | Vmax/Km [7]: 0.18 unit/mg/mM | Km [3, 14]: 130 µM | Vmax [3, 14]: 6.6 unit/mg | Vmax/Km [3, 14]: 51 unit/mg/mM | Km [8]: 200 µM | Vmax [8]: 4.4 unit/mg | Vmax/Km [8]: 22 unit/mg/mM | Km [9]: 6,500 µM | Vmax [9]: 0.51 unit/mg | Vmax/Km [9]: 0.08 unit/mg/mM | Km [4, 14]: 230 µM | Vmax [4, 14]: 4.1 unit/mg | Vmax/Km [4, 14]: 18 unit/mg/mM | Km [10]: 690 µM | Vmax [10]: 8.7 unit/mg | Vmax/Km [10]: 13 unit/mg/mM | Km [11]: 140 µM | Vmax [11]: 6.7 unit/mg | Vmax/Km [11]: 48 unit/mg/mM | Km [12]: 1,700 µM | Vmax [12]: 2.7 unit/mg | Vmax/Km [12]: 1.6 unit/mg/mM | Km [5, 14]: 900 µM
